From the Immune Epitope Database (IEDB)

Legend:
[1] = molecular target: HLA-A*01:01; test: IEDB peptide-MHC binding, purified MHC/competitive/radioactivity; filed as Kd, often an IC50 or EC50 that approximates it; ≥ and ≤ were set here for values at or beyond the usual limits of such assays
[2] = molecular target: HLA-A*23:01; test: as above
[3] = molecular target: HLA-A*24:02; test: as above
[4] = molecular target: HLA-A*26:01; test: as above
[5] = molecular target: HLA-A*29:02; test: as above
[6] = molecular target: HLA-A*30:02; test: as above
[7] = molecular target: HLA-A*01:01; test: IEDB peptide-MHC binding, purified MHC/direct/fluorescence; filed as Kd, often an IC50 or EC50 that approximates it; ≥ and ≤ were set here for values at or beyond the usual limits of such assays; details: source organism: Giardia lamblia ATCC 50803
[8] = molecular target: HLA-A*02:01; test: as above; details: source organism: Giardia lamblia ATCC 50803
[9] = molecular target: HLA-A*03:01; test: as above; details: source organism: Giardia lamblia ATCC 50803
[10] = molecular target: HLA-A*11:01; test: as above; details: source organism: Giardia lamblia ATCC 50803
[11] = molecular target: HLA-A*24:03; test: as above; details: source organism: Giardia lamblia ATCC 50803
[12] = molecular target: HLA-A*26:01; test: as above; details: source organism: Giardia lamblia ATCC 50803
[13] = molecular target: HLA-A*31:01; test: as above; details: source organism: Giardia lamblia ATCC 50803
[14] = molecular target: HLA-A*69:01; test: as above; details: source organism: Giardia lamblia ATCC 50803
[15] = molecular target: HLA-B*08:01; test: as above; details: source organism: Giardia lamblia ATCC 50803
[16] = molecular target: HLA-B*15:01; test: as above; details: source organism: Giardia lamblia ATCC 50803
[17] = molecular target: HLA-B*27:05; test: as above; details: source organism: Giardia lamblia ATCC 50803
[18] = molecular target: HLA-B*40:01; test: as above; details: source organism: Giardia lamblia ATCC 50803
[19] = molecular target: HLA-B*44:02; test: as above; details: source organism: Giardia lamblia ATCC 50803
[20] = molecular target: HLA-B*58:01; test: as above; details: source organism: Giardia lamblia ATCC 50803
[21] = molecular target: HLA-B*15:01; test: IEDB peptide-MHC binding, purified MHC/competitive/fluorescence; filed as Kd, often an IC50 or EC50 that approximates it; ≥ and ≤ were set here for values at or beyond the usual limits of such assays; details: source organism: Bacillus cereus G9241
[22] = source organism: SARS coronavirus Tor2
[23] = source organism: Lassa virus Josiah

Q: Which Kd [1, 22] does the source give for LTGHMLDMY here?
A: The Kd was 0.000563 µM.

Q: What about the Kd [2, 22] of the same sequence?
A: The Kd was ≥ 77.8 µM.

Q: And the Kd [3, 22]?
A: Its Kd is ≥ 77.6 µM.

Q: What about the Kd [4, 22] of the same sequence?
A: Its Kd is 10.5 µM.

Q: What about the Kd [5, 22] of the same sequence?
A: The Kd was 0.0611 µM.

Q: What about the Kd [6, 22] of the same sequence?
A: Its Kd is 0.0728 µM.

Q: Which results are given for NAAISDYDYY?
A: Kd [1, 22]: 0.0124 µM; Kd [2, 22]: ≥ 70 µM; Kd [3, 22]: ≥ 70.3 µM; Kd [4, 22]: 1.64 µM; Kd [5, 22]: 0.688 µM; Kd [6, 22]: 0.274 µM

Q: What does the source list for PEDPVEIALY?
A: Kd [1, 23]: ≥ 34.4 µM; Kd [2, 23]: ≥ 70 µM; Kd [3, 23]: ≥ 70.3 µM; Kd [4, 23]: ≥ 69.7 µM; Kd [5, 23]: 15 µM; Kd [6, 23]: 0.961 µM

Q: Which results are given for PPQATAKYL?
A: Kd [7]: ≥ 20 µM; Kd [8]: ≥ 20 µM; Kd [9]: ≥ 20 µM; Kd [10]: ≥ 20 µM; Kd [11]: 9.66 µM; Kd [12]: ≥ 20 µM; Kd [13]: ≥ 20 µM; Kd [14]: ≥ 20 µM; Kd [15]: ≥ 20 µM; Kd [16]: ≥ 20 µM; Kd [17]: ≥ 20 µM; Kd [18]: ≥ 20 µM; Kd [19]: ≥ 20 µM; Kd [20]: ≥ 20 µM

Q: For RKIKAITSF, which Kd [21] is on record?
A: The Kd was 1.88 µM.

Q: Which results are given for RYYDGNIYDL?
A: Kd ([1]; source organism: Variola virus): 2.61 µM; Kd ([2]; source organism: Variola virus): 0.0135 µM; Kd ([3]; source organism: Variola virus): 0.0879 µM; Kd ([4]; source organism: Variola virus): ≥ 69.7 µM; Kd ([5]; source organism: Variola virus): ≥ 61.8 µM; Kd ([6]; source organism: Variola virus): 0.0152 µM

Q: With SCDFNGGKI as the sequence, how does the Kd [1, 23] read?
A: The Kd was ≥ 23.2 µM.

Q: What about the Kd [2, 23] of the same sequence?
A: The Kd was ≥ 77.7 µM.

Q: And the Kd [3, 23]?
A: The Kd was ≥ 77.5 µM.

Q: What about the Kd [4, 23] of the same sequence?
A: The Kd was ≥ 77.9 µM.

Q: And the Kd [5, 23]?
A: The Kd was ≥ 78.9 µM.

Q: And the Kd [6, 23]?
A: The Kd was ≥ 76.9 µM.
